# From the RNAGym collection of RNA variant scans (doi:10.7554/elife.80360)
# B1: CPEB3 Ribozyme (parent)
# chain: GGGGGCCACAGCAGAAGCGUUCACGUCGCGGCCCCUGUCAGAUUCUGGUGAAUCUGCGAAUUCUGCUGU
# Variants of: B1
# Experiment: self-cleavage, relative activity (ratio to wild type); higher = more cleavage; co-transcriptional
row,Variant,self-cleavage
1,UGGGGCCACAGCAGAAGCGUUCACGUCGCGGCCCCUGUCAGAUUCUGGUGAAUCAGCGAAUUCUGCUGU,0.109
2,UGGGGCCACAGCAGAAGCGUUCACGUCGCGGCCCCUGUCAGAUUCUGGUGAAUCCGCGAAUUCUGCUGU,0.0608
3,UGGGGCCACAGCAGAAGCGUUCACGUCGCGGCCCCUGUCAGAUUCUGGUGAAUCGGCGAAUUCUGCUGU,0.118
4,UGGGGCCACAGCAGAAGCGUUCACGUCGCGGCCCCUGUCAGAAUCUGGUGAAUCUGCGAAUUCUGCUGU,0.0877
5,UGGGGCCACAGCAGAAGCGUUCACGUCGCGGCCCCUGUCAGAGUCUGGUGAAUCUGCGAAUUCUGCUGU,0.113
6,UGGGGCCACAGCAGAAGCGUUCACGUCGCGGCCCCUGUCAGACUCUGGUGAAUCUGCGAAUUCUGCUGU,0.127
7,UGGGGCCACAGCAGAAGCGUUCACGUCGCGACCCCUGUCAGAUUCUGGUGAAUCUGCGAAUUCUGCUGU,0.0918
8,UGGGGCCACAGCAGAAGCGUUCACGUCGCGUCCCCUGUCAGAUUCUGGUGAAUCUGCGAAUUCUGCUGU,0.0933
9,UGGGGCCACAGCAGAAGCGUUCACGUCGCGCCCCCUGUCAGAUUCUGGUGAAUCUGCGAAUUCUGCUGU,0.0835
10,UGGGGCCACAGCAGAAGCGUUCACGUCGCGGCCCCUGUCAGAUUCUGGUGAAUCUUCGAAUUCUGCUGU,0.108
11,UGGGGCCACAGCAGAAGCGUUCACGUCGCGGCCCCUGUCAGAUUCUGGUGAAUCUCCGAAUUCUGCUGU,0.105
12,UGGGGCCACAACAGAAGCGUUCACGUCGCGGCCCCUGUCAGAUUCUGGUGAAUCUGCGAAUUCUGCUGU,0.0662
13,UGGGGCCACAGCAGAAGCGUUCACGUCGCGGCCCCUGUCAGAUUCUGUUGAAUCUGCGAAUUCUGCUGU,0.079
14,UGGGGCCACAGCAGAAGCGUUCACGUCGCGGCCCCUGUCAGAUUCUGCUGAAUCUGCGAAUUCUGCUGU,0.0782
15,UGGGGCCACAGCAGAAGCGUUCACGUCGCGGCCCCUGUCAGAUUCUGAUGAAUCUGCGAAUUCUGCUGU,0.192
16,UGGGGCCACAGCAGAAGCGUUCACGUCGCGGCCCCUGUCAGAUUCAGGUGAAUCUGCGAAUUCUGCUGU,0.123
17,UGGGGCCACAGCAGAAGCGUUCACGUCGCGGCCCCUGUCAGAUUCGGGUGAAUCUGCGAAUUCUGCUGU,0.0728
18,UGGGGCCACAGCAGAAGCGAUCACGUCGCGGCCCCUGUCAGAUUCUGGUGAAUCUGCGAAUUCUGCUGU,0.042
19,UGGGGCCACAGCAGAAGCGUUCACGUCGCGGCCCCUGUCAGAUUCUGGUGAAUCUGCGAAUUCUGGUGU,0.0803
20,UGGGGCCACAGCAGAAGCGUUCACGUCGCGGCCCCUGUCAGAUUCUGGUGAAUCUGCGAAUUCUGAUGU,0.0594
21,UGGGGCCACAGCAGAAGCGUUCACGUCCCGGCCCCUGUCAGAUUCUGGUGAAUCUGCGAAUUCUGCUGU,0.0671
22,UGGGGCCACAGCAGAAGCGUUCACGUCACGGCCCCUGUCAGAUUCUGGUGAAUCUGCGAAUUCUGCUGU,0.0369
23,UGGGGCCACAGCAGAAGCGUUCACGUCGCCGCCCCUGUCAGAUUCUGGUGAAUCUGCGAAUUCUGCUGU,0.0755
24,UGGGGCCACAGCAGAAGCGUUCACGUCGCUGCCCCUGUCAGAUUCUGGUGAAUCUGCGAAUUCUGCUGU,0.0366
25,UGGGGCCACAGCAGAAGCGUUCACGUCGCGGCCCCUGUCAGAUGCUGGUGAAUCUGCGAAUUCUGCUGU,0.127
26,UGGGGCCACAGCAGAAGCGUUCACGUCGCGGCCCCUGUCAGAUACUGGUGAAUCUGCGAAUUCUGCUGU,0.0951

row,Variant,self-cleavage
1,UGGGGCCACAGCAGAAGCGUUCACGUCGCGGCCCCUGUCAGAUCCUGGUGAAUCUGCGAAUUCUGCUGU,0.106
2,UGUGGCCACAGCAGAAGCGUUCACGUCGCGGCCCCUGUCAGAUUCUGGUGAAUCUGCGAAUUCUGCUGU,0.0448
3,UGCGGCCACAGCAGAAGCGUUCACGUCGCGGCCCCUGUCAGAUUCUGGUGAAUCUGCGAAUUCUGCUGU,0.0566
4,UGAGGCCACAGCAGAAGCGUUCACGUCGCGGCCCCUGUCAGAUUCUGGUGAAUCUGCGAAUUCUGCUGU,0.04
5,UGGGGCCACAGCAGAAGCGUUCACGUCGCGGCCCCUGUCAGAUUCUGGUGAAACUGCGAAUUCUGCUGU,0.0914
6,UGGGGCCACAGCAGAAGCGUUCACGUCGCGGCCCCUGUCAGAUUCUGGUGAAGCUGCGAAUUCUGCUGU,0.101
7,UGGGGCCACAGCAGAAGCGUGCACGUCGCGGCCCCUGUCAGAUUCUGGUGAAUCUGCGAAUUCUGCUGU,0.0804
8,UGGGGCCACAGCAGAAGCGUCCACGUCGCGGCCCCUGUCAGAUUCUGGUGAAUCUGCGAAUUCUGCUGU,0.119
9,UGGGGCCACAGCAGAAGCGUUCACGUCGCGGCCCCUGUCAGAUUCUGGUGAAUCUGCGAAUACUGCUGU,0.137
10,UGGGGCCACAGCAGAAGCGUUCACGUCGCGGCCCCUGUCAGAUUCUGGUGAAUCUGCGAAUCCUGCUGU,0.0771
11,UGGGGCCACAGCAGAAGCGUUCACGUCGCGGCCCCUGUCAGAUUCUGGUGAAUCUGCGAAUGCUGCUGU,0.0907
12,UGGGGCCACAGCAGAAGCGUUCACGUCGCGGCCCCUGUCAGAUUCUAGUGAAUCUGCGAAUUCUGCUGU,0.117
13,UGGGGCCACAGCAGAAGCGUUCACGUCGCGGCCCCUGUCAGAUUCUUGUGAAUCUGCGAAUUCUGCUGU,0.14
14,UGGGGCCACAGCACAAGCGUUCACGUCGCGGCCCCUGUCAGAUUCUGGUGAAUCUGCGAAUUCUGCUGU,0.133
15,UGGGGCCACAGCAAAAGCGUUCACGUCGCGGCCCCUGUCAGAUUCUGGUGAAUCUGCGAAUUCUGCUGU,0.118
16,UGGGCCCACAGCAGAAGCGUUCACGUCGCGGCCCCUGUCAGAUUCUGGUGAAUCUGCGAAUUCUGCUGU,0.0789
17,UGGGGCCACAGCAGAAGCGUUCACGUCGCGGCCCCUGGCAGAUUCUGGUGAAUCUGCGAAUUCUGCUGU,0.0202
18,UGGGGCCACAGCAGAAGCGUUCACGUCGCGGCCCCUGCCAGAUUCUGGUGAAUCUGCGAAUUCUGCUGU,0.0816
19,UGGGGCCACAGCAGAAGCGUUCACGUCGCGGCCCCGGUCAGAUUCUGGUGAAUCUGCGAAUUCUGCUGU,0.0723
20,UGGGGCCACAGCAGAAGCGUUCACGUCGCGGCCCCCGUCAGAUUCUGGUGAAUCUGCGAAUUCUGCUGU,0.102
21,UGGGGCCACAGCAGAAGCGUUCACGUCGCGGCCCCUGUCAGAUUCUGGUUAAUCUGCGAAUUCUGCUGU,0.056
22,UGGGGCCACAGCAGAAGCGUUCACGUCGCGGCCCCUGUCAGAUUCUGGUCAAUCUGCGAAUUCUGCUGU,0.0733
23,UGGGGCCACAGCAGAAGCGUUCACGUCGCGGCCCCUGUCAGAUUCUGGGGAAUCUGCGAAUUCUGCUGU,0.152
24,UGGGGCCACAGCAGAAGCGUUCACGUCGCGGCCCCUGUCAGAUUCUGGCGAAUCUGCGAAUUCUGCUGU,0.0511
25,UGGGGCCACAGCAGAAGCGUUCACGUCGCGGCCCCUGUCAGAUUCUGGAGAAUCUGCGAAUUCUGCUGU,0.124
26,UAGGGCCACAGCAGAAGCGUUCACGUCGCGGCCCCUGUCAGAUUCUGGUGAAUCUGCGAAUUCUGCUGU,0.0657

row,Variant,self-cleavage
1,UCGGGCCACAGCAGAAGCGUUCACGUCGCGGCCCCUGUCAGAUUCUGGUGAAUCUGCGAAUUCUGCUGU,0.333
2,UGGGGCCACAGCAGAAGCGUUCACGUCGCGGCCCCUGUCAGAUUCUGGUGAAUCUGCGAAGUCUGCUGU,0.208
3,UGGGGCCACAGCAGAAGCGUUCACGUCGCGGCCCCUGUCAGAUUCUGGUGAAUCUGCGAAAUCUGCUGU,0.0989
4,UGGGGCCACAGCAGAAGCGUUCACGUCGCGGCCCCUAUCAGAUUCUGGUGAAUCUGCGAAUUCUGCUGU,0.0613
5,UGGGGCCACAGCAGAAGCAUUCACGUCGCGGCCCCUGUCAGAUUCUGGUGAAUCUGCGAAUUCUGCUGU,0.0502
6,UGGGGCCACAGCAGAAGCGUUCACGUCGCGGCCCCUGUCAGAUUCUGGUGAAUCUGCGAAUUCUGCUCU,0.0929
7,UGGGGCCACAGCAGAAGCGUUCACGUCGCGGCCCCUGUCAGAUUCUGGUGAAUCUGCGAAUUCUGCUAU,0.129
8,UGGGGCCACAGCAGAAGCGUUCACGUCGCGGCCCCUGUCAGAUUCUGGUGAAUCUGCGAAUUCUGCUUU,0.173
9,UGGGGCCACAGCAGAAGCGUUCACGUCGCGGCCCCUGUCAGAUUCUGGUGAAUCUGCUAAUUCUGCUGU,0.137
10,UGGGGCCACAGCAGAAGCGUUCACGUCGCGGCCCCUGUCAGAUUCUGGUGAAUCUGCCAAUUCUGCUGU,0.128
11,UGGGGCCACAGCAGAAGCGUUCACGUCGCGGCCCCUGUCAGAUUCUGGUGAAUCUGCGAAUUCUCCUGU,0.0555
12,UGGGGCCACAGCAGAAGCGUUCACGUCGCGGCCCCUGUCAGAUUCUGGUGAAUCUGCGAAUUCUUCUGU,0.0644
13,UGGGGCCACAGCAGAAGCGUUCACGUCGCGGCCCCUGUCAGAUUCUGGUGAAUCUGCGAAUUCUACUGU,0.0898
14,UGGGGCCACAGCAGAAGCGUUCACGUCGCGGCCCCUGUCAGAUUCUGGUGAAUCUGCGAAUUCAGCUGU,0.0494
15,UGGGGCCACAGCAGAAGCGUUCACGUCGCGGCCCCUGUCAGAUUCUGGUGAAUCUGCGAAUUCCGCUGU,0.0613
16,UGGCGCCACAGCAGAAGCGUUCACGUCGCGGCCCCUGUCAGAUUCUGGUGAAUCUGCGAAUUCUGCUGU,0.0734
17,UGGUGCCACAGCAGAAGCGUUCACGUCGCGGCCCCUGUCAGAUUCUGGUGAAUCUGCGAAUUCUGCUGU,0.127
18,UGGAGCCACAGCAGAAGCGUUCACGUCGCGGCCCCUGUCAGAUUCUGGUGAAUCUGCGAAUUCUGCUGU,0.112
19,UGGGGCCACAGCAGAAGCGUUCACGUCGCGGCCCCUGUCAGAUUCUGGUGAAUCUGUGAAUUCUGCUGU,0.0565
20,UGGGGCCACAGCAGAAGCGUUCACGUCGCGGCCCCUGUCAUAUUCUGGUGAAUCUGCGAAUUCUGCUGU,0.116
21,UGGGGCCACAGCAGAAGCGUUCACGUCGCGGCCCCUGUCAAAUUCUGGUGAAUCUGCGAAUUCUGCUGU,0.123
22,UGGGGCCACAGCAGAAGCGUUCACGUCGCGGCCCCUGUCACAUUCUGGUGAAUCUGCGAAUUCUGCUGU,0.036
23,UGGGGCCACAGCAGAAGCGUUCACGCCGCGGCCCCUGUCAGAUUCUGGUGAAUCUGCGAAUUCUGCUGU,0.0437
24,UGGGGCCACAGCAGAAGCGUUCACGUCGCGGCCCCUGUCAGAUUCUGGUGAAUCUGCGAAUUUUGCUGU,0.0897
25,UGGGGCCACAGCAGAAGCGUUCACGUCGCGGCCCCUGUCAGAUUCUGGUGAAUCUGCGAAUUAUGCUGU,0.101
26,UGGGGCCACAGCAGAAUCGUUCACGUCGCGGCCCCUGUCAGAUUCUGGUGAAUCUGCGAAUUCUGCUGU,0.0803
